Among the data in paper PMC10539048 are percent reduction of actin-binding activity relative to WT values, retold here.

The assay addresses filamentous actin polymerized from human platelet actin (human) (UniProt P60709). In words: co-sedimentation.

In turn, “human MAP2C T300E (from UniProt P11137-2 1-471) (natural protein)” showed a percent reduction of actin-binding activity relative to WT of 43%. “human MAP2C T293E (from UniProt P11137-2 1-471) (natural protein)” returned a percent reduction of actin-binding activity relative to WT of 43%.
